From the supplement of paper PMC12764529
± gives the half width of the 95% confidence interval.

How the values were obtained:
[1] = folding stability dG unfold from chymotrypsin proteolysis; higher = more stable
In short: (§1)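 Unfolding free energy was derived, per protease or combined, against a sequence-predicted unfolded-state K50 and a shared folded-state K50, starting from K50 inferred by Bayesian fitting of sequencing counts. Digestion with trypsin and chymotrypsin was carried out on designed mini-proteins under 80 residues without cysteine in a PA-tagged cDNA display construct. Only designs with AlphaFold2 dimer inter-PAE above 15 were kept.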

[2] = folding stability dG unfold from trypsin proteolysis; higher = more stable
In short: as §1

[3] = folding stability dG unfold (combined trypsin and chymotrypsin); higher = more stable
In short: as §1

Sequence | folding stability dG unfold [1] [kcal/mol] | folding stability dG unfold [2] [kcal/mol] | folding stability dG unfold [3] [kcal/mol]
SAGGPITITIKTKNGKELELKLPGIRSVQFNPDSVWIAFKFPDQYIMIQINPPNGKIMIQIMPPGQPISAGG [r13_392_TrROS] | 3.66 ± 0.053 | 2.47 ± 0.097 | 3.18 ± 0.14
NKIEIKAYKIEETGEIIVEVKIEFPVYDPETKTIKPVVLTITFVGDPEKAIEAIKKFVDFYGGEIDYIDFGS [r1_488_TrMRF] | 4.5 ± 0.091 | 2.84 ± 0.099 | 4.36 ± 0.1
SAGGPPSVWIPIEINFPDSPEQLLEEVENAAQEIADLFGIPVKIEVERNPKKGYATIWIRVDGKTIPISAGG [r13_845_TrROS] | 1.7 ± 0.11 | 1.66 ± 0.041 | 1.71 ± 0.22
SAGGSAETKTVVIEVKLPEELKGLSAEELAALLAEELAKKPGVKEVTVTVERDEETDTLRVTITYPSAGGSA [r15_1029_TrROS_Hall] | 2.94 ± 0.043 | 3.21 ± 0.05 | 3.12 ± 0.042
SAGGSAGGSMSPSSSYTIEKVSEDPSRGVITLKITYPTGESITLKLSPADEEKAEEEAKKLLESAGGSAGGS [r20_167_JUSTAS] | 1.63 ± 0.1 | 1.68 ± 0.04 | 1.63 ± 0.17
SAGMVAEEARRRASPEELAAEEAPPRPPPPVTVVTVPREVAPEVLAALAAAEDVEVEERGDELVIRVVGSAG [r14_7_JUSTAS] | 0.559 ± 0.1 | -0.583 ± 0.39 | 0.299 ± 0.19
SAGGMTRKLTFLGDIDKPVGLDGDIEIRPNPETGGFTIRVPPGVRIEAEVERLTDPPLALVTVTFLESAGGS [r16_122_TrMRF] | 1.03 ± 0.074 | -0.118 ± 0.082 | 0.715 ± 0.054
SAGGSAGGSKPKRRRVQIELPLPPGKPITPDHIREFMRPFGAPKVEITNIHPTNGRWIITFELSAGGSAGGS [r20_79_TrROS] | 2.6 ± 0.11 | 1.98 ± 0.031 | 2.42 ± 0.14
SAGKKYIVVVNVDFGSPEKKESAPIVLELDEDEEVSEALAKIPGLEDVKVEVYVIEAEENPELAENPGSAGG [r19_339_TrMRF] | 1.38 ± 0.083 | 0.31 ± 0.11 | 0.994 ± 0.2
SAGTPEEVLQRAKELANRFQDRARDNGMDVKVDITQVEPNRIRINIEMRPPNGRRHRMPIEIELPKDDISAG [r5_994_TrROS] | 1.65 ± 0.036 | 1.27 ± 0.079 | 1.43 ± 0.2
SAGGSAKIEIIKDPETGTYTIRLEKEIKPGQTLTITDENGETWKITSVSVEEVNGELYVTVKVEKVSAGGSA [r15_838_TrROS_Hall] | 3.542 ± 0.026 | 2.24 ± 0.048 | 3.19 ± 0.056
SKTIMIPANMPIDFIRKIARNAAKNGPPVKITIMIPDNPKIKEWLEEAGFPVEIERNKENNMQMITIEVPSA [r9_759_TrROS] | 1.95 ± 0.028 | 1.8 ± 0.029 | 1.91 ± 0.07
SAGGEERERIRRLVRELRRRGYKRITADELARLLGREITEEELEALREAGLIELEEEETVEVVLPEEESAGG [r13_188_TrROS_Hall] | 4.26 ± 0.085 | 4.02 ± 0.16 | 4.15 ± 0.14
SAGGSAGGTLSIEELKELFPEAEKIEAEEVELTFTLPNGKKVKAKYRLVTVYRDNKPILLLVPGSAGGSAGG [r6_138_TrMRF] | 2.97 ± 0.056 | 2.82 ± 0.17 | 2.97 ± 0.12
SAGGSAGGSAGKIKIVKDEKTGEYKLVVYDKNGKKVKTITLSKEELEKNPELLKKLLEELSAGGSAGGSAGG [r17_496_TrROS_Hall] | 4.56 ± 0.15 | 3.52 ± 0.27 | 4.51 ± 0.17
MVVTVETTMIDPEGNPLTKTFTVPSSVVEALKEAGKPLTKEELEKLVKEKVEAEAKKYNVSVEVTLVSFERS [r1_174_JUSTAS] | 2.7 ± 0.066 | 2.21 ± 0.17 | 2.6 ± 0.27
SAGGSAMLIRFVRDDKTVELRPFSSIEEARAFLEKGPVEEIEPREAPGGERVTFRAKLPDGEVLVESAGGSA [r15_632_JUSTAS] | -0.743 ± 0.33 | -0.466 ± 0.23 | -0.542 ± 0.15
SAGGSAIPFPPGAKVKKIEMHEKKDDNKPRYVMIIKWEGGNIMVFQMDPGDGNFKPIGWVPLDDLKSAGGSA [r15_777_TrROS] | 2.33 ± 0.058 | 0.508 ± 0.07 | 1.95 ± 0.12
SAGGSAGGSAGIRIKAFPGWKIVDIEPNPPGTIIIRYPNWVFQIRIRPNGEIEIRIVPLDSAGGSAGGSAGG [r11_612_TrROS] | 3.64 ± 0.055 | 3.09 ± 0.093 | 3.49 ± 0.083
SLEVARELGLPVERAIPTSVDPFNGRTHLVVLVSLPSRFVRIEVDVRYEPDPDGRLIPRVEVLRIEVFPESA [r9_613_TrMRF] | 3.67 ± 0.04 | 2.59 ± 0.048 | 3.21 ± 0.05
SAMLGAEELVRRIAEEIERRLGVPAGFDVPVRVYRPEDALVIDAYIVARGPDGEPLGERRITLVLRPEDSAG [r14_708_TrMRF] | 3.49 ± 0.051 | 1.94 ± 0.032 | 2.93 ± 0.11
SAGGSAGGSAGGDNRLPIPVKTPVVVVPADEAREEIRATLPPDAYRVEEERGDYVTISLGSAGGSAGGSAGG [r7_670_JUSTAS] | 1.05 ± 0.022 | 0.481 ± 0.044 | 0.847 ± 0.049
SAGGEIEIDENGFIRMTLYDPATGYKIEAEFRILPDGTIEITKIKIEPLPPPPPPKVFVLDENGELVESAGG [r13_646_TrROS_Hall] | 3.1 ± 0.086 | 3.31 ± 0.2 | 2.77 ± 0.38
SAGGSAGGKKYEVVSTIKDPATGETITVIKKDGKLIITITNKNGETKTIEITVKPGETITITAPSAGGSAGG [r6_379_TrROS_Hall] | 1.57 ± 0.026 | 1.93 ± 0.077 | 1.74 ± 0.057
SAGGVERDPPGKNVYYVEIEIKIEIRDPNNGKPLEIPVPITYPFKSPADALEQMRRQARNLAEKLLNSAGGS [r16_624_TrROS] | 2.18 ± 0.1 | 1.78 ± 0.041 | 2.03 ± 0.13
SAGGSAGGSAGGDPDERIPIKIEMWHPNKPYEHEFPVGMDLSDIADPFASDGFMVRIEISAGGSAGGSAGGS [r10_540_TrROS] | 1.26 ± 0.07 | 0.795 ± 0.058 | 1.05 ± 0.14
SAMYLIKITIYNEETGEKIAELTLEVEEEDLEELLEEIRKKLNLPPGAKIKVEIVPLEPVVLPDGKLLKSAG [r14_297_TrROS_Hall] | 2.54 ± 0.2 | 0.724 ± 0.12 | 1.7 ± 0.27
SAGGSAGTVKFKQPFPFYDPGNGWPFPIDIKITVEYKPDPNGEPKWQITKIEIKMPEGSPALKDLISAGGSA [r15_258_TrROS] | 2.24 ± 0.048 | 1.82 ± 0.11 | 2 ± 0.14
